System: MS2 coat protein
Assay: apparent KD of MS2 coat protein; designed switch direction (-1 OFF switch, 1 ON switch): -1; higher = weaker reporter binding
Summary of the method: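 Normalised cluster fluorescence was curve-fitted, and each design's median over clusters is its apparent KD. Before this, SNAP-549-labelled MS2 coat protein was titrated from 0.7 or 1.5 nM, doubling to 3 µM, over RNA switches transcribed on Illumina chips by stalled E. coli RNA polymerase. Titrations had no input, 200 uM small-molecule ligand, or an oligonucleotide input, and steps lasted 0.8–1.5 h (lowest) to 10–20 min (highest).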

[1] = input ligand: microRNA oligo, concentration not stated
[2] = Eterna round: R95, input ligand: microRNA oligo, concentration not stated
[3] = Eterna round: R95, input ligand: FMN 200 uM
[4] = Eterna round: R95, input ligand: none

Sequence | apparent KD of MS2 coat protein (input ligand: FMN 200 uM) | apparent KD of MS2 coat protein (input ligand: none) | apparent KD of MS2 coat protein [2] | also measured
CUUCAGUCAGGAUAUCAUGAGCUCUGCCGACACGGGCUCGCUGAGAAGGGACAUGAGGAUCACCCAUGUAGACC [EX4 C.20] (Eterna round: R97, puzzle: Exclusion 4) | 0.132 µM | 0.0341 µM |  | 
CUUCAUUGUUGAGGAUAUAAUUAUAGGAUGUAGUUAGAAGGCGAACAUGAGGAUCACCCAUGUCAGGCAUGGAGACCCUUGACC [Eternabot solution 8] (Eterna round: R96, puzzle: Exclusion NG 1) |  |  |  | apparent KD of MS2 coat protein [1]: 0.308 µM
CUUCCACGGAUUGUAUUAAACAUGAGGAUCACCCAUGUCCGGGAUUUAAAACAAGCCCUUUGCUCAGUCCUUAUUGC [Eternabot (L1) Solution 10] (Eterna round: R97, puzzle: Sensor, turn-off variant 1) | 0.0222 µM | 0.0259 µM |  | 
CUUCGACAUGAGGAUCACCCAUGUCAGGAUAUUGUUUAUCUGGUUUUUUACAGAUAUGCAAGAAGGGAUGUGUU [LRO-Excl1-03] (puzzle: Exclusion 1) |  |  | 0.0265 µM | 
CUUCUGUGAGGAUAUGUGAACCCGUGCCGAAAGGAUGGGAAACAGAAGGCACAUGAGGAUCACCCAUGUAAAAU [Isergeat] (puzzle: Exclusion 4) |  |  | 0.0291 µM | 
CUUGAAUAAGUGAGGAUAUACUGUUAGUAAUGAUUGUAGAAGGUACAUGAGGAUCACCCAUGUUUAUUCUUUAU [JR_BME4_Sub040] (puzzle: Brourd's mod of Exclusion 4) |  |  | 0.0145 µM | 
CUUGCAUUGCGAGGAUAUCCAACGUGGCUCGUGCUUACAUGAGGAUCACCCAUGUUCUACUAAAAGGAGAAGGCGCUUGGAGGA [Endixexebe] (Eterna round: R96, puzzle: Exclusion NG 2) | 0.0488 µM | 0.0255 µM |  | apparent KD of MS2 coat protein [1]: 0.0168 µM
CUUGGAGAGGUAGGAUAUUUAUAUUCACACUCUGAUUCUUGUACACAUGAGGAUCACCCAUGUAUAGAGAAGGACUGCCAAGAG [Eternabot solution 48] (Eterna round: R96, puzzle: Exclusion NG 2) | 0.0216 µM | 0.0213 µM |  | apparent KD of MS2 coat protein [1]: 0.0172 µM
CUUUACAAGCUAAGAUCCUACAUGAGGAUCACCCAUGUGGUCCGGUGACGUGAGUCACCGGACUUAGCUCGUCUUGU [salish99_S_TOV1_R5_096] (Eterna round: R97, puzzle: Sensor, turn-off variant 1) | 0.0415 µM | 0.0426 µM |  | 
CUUUACAUGCUGAGAUCCUACAUGAGGAUCACCCAUGUGGUCCGGUGACGUGAGUCACCGGACUUAGCUCGUCUUGU [salish99_S_TOV1_R5_098] (Eterna round: R97, puzzle: Sensor, turn-off variant 1) | 0.169 µM | 0.336 µM |  | 
CUUUAGUGAGGAUAUCAGUAGUAAUACAAUAGUAUUACUGCUGAGAAGGCACAUGAGGAUCACCCAUGUUCCUC [Mat - Exclusion 4 - Mod of Omei - D83] (puzzle: Exclusion 4) |  |  | 0.0331 µM | 
CUUUGAUGAGGAUAUCGAGGUUAGUACAUGAGGAUCACCCAUGUUAUCCAGGUGUCGGAUCGAGAAGGUAUUGGAC [LRO-Ex5-18] (puzzle: Exclusion 5) |  |  | 0.0148 µM | 
CUUUGCACGCUGCGGUCCUACAUGAGGAUCACCCAUGUGGUCUGGUGGCGUGGGUCGCCGGACUUGGCUCGUCUUGA [salish99_S_TOV1_R5_040] (Eterna round: R97, puzzle: Sensor, turn-off variant 1) | 0.0185 µM | 0.0184 µM |  | 
CUUUGGGCAGGAUAUGCUGUUUGUGACAUGAGGAUCACCCAUGUGAUGCAGUUUGGGUGUGCAGAAGGGCCUGAGA [JR_E5_Sub030] (puzzle: Exclusion 5) |  |  | 0.0726 µM | apparent KD of MS2 coat protein [3]: 0.115 µM; apparent KD of MS2 coat protein [4]: 0.11 µM
CUUUUAAAUGUGAGGAUAUACUGUUAUUAAAGUUAGUAGAAGGUACAUGAGGAUCACCCAUGUUAAUUACUCUA [JR_BME4_Sub048] (puzzle: Brourd's mod of Exclusion 4) |  |  | 0.0125 µM | apparent KD of MS2 coat protein [3]: 0.0151 µM; apparent KD of MS2 coat protein [4]: 0.0126 µM
CUUUUGCAACAAGCCAAUAACAUGAGGAUCACCCAUGUCCUGUUGAGGUCUUCCGUCGUUCUUGCUCACGUCUUACG [Eternabot (L1) Solution 50] (Eterna round: R97, puzzle: Sensor, turn-off variant 1) | 0.0548 µM | 0.0563 µM |  | 
CUUUUGUGAGGAUAUCAGUAGUAAAUAAAUAAAAUAACUACUGAGAAGGCACAUGAGGAUCACCCAUGUUCCUC [Mat - Exclusion 4 - Mod of Salish - D69] (puzzle: Exclusion 4) |  |  | 0.0386 µM | 
CUUUUGUGAGGAUAUCAGUAGUAAUACAAUAGUAUUACUGCUGAGAAGGCACAUGAGGAUCACCCAUGUUCCUC [Ex4 344 Omei mod 10] (puzzle: Exclusion 4) |  |  | 0.0536 µM | 
CUUUUGUGAGGAUAUCAGUAGUAAUUAAAUAAAAUUACUACUGAGAAGGCACAUGAGGAUCACCCAUGUUCCUC [salish99_ex3_r3_077] (puzzle: Exclusion 4) |  |  | 0.0395 µM | 

Sequence | apparent KD of MS2 coat protein (input ligand: FMN 200 uM) | apparent KD of MS2 coat protein (input ligand: none) | apparent KD of MS2 coat protein [2] | also measured
CUUUUGUGAGGAUAUCAGUAGUAGAACAAUAGUACUACUACUGAGAAGGCACAUGAGGAUCACCCAUGUUCCUC [Fiskers Ex 4 Super stable 44 mod 2] (puzzle: Exclusion 4) |  |  | 0.0523 µM | 
CUUUUGUGAGGAUAUCAGUAGUAGAACAAUAGUACUACUACUGAGAAGGCACAUGAGGAUCACCCAUGUUCCUU [Fiskers Ex 4 Super stable 44 mod 6] (puzzle: Exclusion 4) |  |  | 0.0154 µM | 
CUUUUGUGAGGAUAUCAGUAGUUAAAUAAUAAAAUUACUACUGAGAAGGCACAUGAGGAUCACCCAUGUUCCUC [Mat - Exclusion 4 - Mod of Salish - D70] (Eterna round: R96, puzzle: Exclusion 4) | 0.274 µM | 0.04 µM |  | apparent KD of MS2 coat protein [1]: 0.0351 µM
CUUUUGUGAGGAUAUCAGUAGUUAAAUAAUAAAAUUACUACUGAGAAGGCACAUGAGGAUCACCCAUGUUCCUC [Mat - Exclusion 4 - Mod of Salish - D70] (puzzle: Exclusion 4) |  |  | 0.0355 µM | 
CUUUUGUGAGGAUAUCAGUUGUAAAAAAAUAAAAUUACUACUGAGAAGGCACAUGAGGAUCACCCAUGUUCCUC [salish99_ex4_r3_033] (puzzle: Exclusion 4) |  |  | 0.0332 µM | 
CUUUUGUGAGGAUAUUAGUAGUAAAUAAAUAAAAUUACUACUGAGAAGGCACAUGAGGAUCACCCAUGUUUCUC [salish99_ex4_r3_065] (Eterna round: R96, puzzle: Exclusion 4) | 0.278 µM | 0.0355 µM |  | apparent KD of MS2 coat protein [1]: 0.0312 µM
CUUUUGUGAGGAUAUUAGUAGUAAAUAAAUAAAAUUACUACUGAGAAGGCACAUGAGGAUCACCCAUGUUUCUC [salish99_ex4_r3_065] (puzzle: Exclusion 4) |  |  | 0.0319 µM | 
CUUUUGUGAGGAUAUUAGUAGUAAAUAAAUAAAAUUUCUACUGAGAAGGCACAUGAGGAUCACCCAUGUUCCUC [salish99_ex4_r3_061] (Eterna round: R96, puzzle: Exclusion 4) | 0.347 µM | 0.0339 µM |  | apparent KD of MS2 coat protein [1]: 0.034 µM
CUUUUGUGAGGAUAUUAGUAGUAAAUAAAUAAAAUUUCUACUGAGAAGGCACAUGAGGAUCACCCAUGUUCCUC [salish99_ex4_r3_061] (puzzle: Exclusion 4) |  |  | 0.0332 µM | 
CUUUUGUGAGGAUAUUAGUAGUAAAUAAUUAAAAUUAUUACUGAGAAGGCACAUGAGGAUCACCCAUGUAACUC [JR_Ex4_Sub027] (Eterna round: R97, puzzle: Exclusion 4) | 0.4 µM | 0.0499 µM |  | 
CUUUUGUGAGGAUAUUAGUAGUAAAUAUAUAAAAUUACUACUGAGAAGGCACAUGAGGAUCACCCAUGUUCCUC [salish99_ex4_r3_055] (puzzle: Exclusion 4) |  |  | 0.0362 µM | 
CUUUUGUGAGGAUAUUAGUAGUAUAUAAAUAAAAUUACUACUGAGAAGGCACAUGAGGAUCACCCAUGUUCCUC [salish99_ex4_r3_052] (puzzle: Exclusion 4) |  |  | 0.0304 µM | 
CUUUUGUGAGGAUAUUGGUAGUAAAUAAAUAAAAUUAUUACCGAGAAGGCACAUGAGGAUCACCCAUGUUCCUC [Salish 062 v17] (Eterna round: R97, puzzle: Exclusion 4) | 0.823 µM | 0.0507 µM |  | 
CUUUUGUUAGGAUAUUAGUAGUAAAUAAAUAAAAUUACUACUGAGAAGGCACAUGAGGAUCACCCAUGUUCCUC [salish99_ex4_r3_045] (puzzle: Exclusion 4) |  |  | 0.0253 µM | 
CUUUUUUCUGUAAGGAUAUAGCCCGCGAGAUGUGGCUAGAAGGUACAUGAGGAUCACCCAUGUGUGUCCACAUU [Eternabot (L1) Solution 55] (Eterna round: R97, puzzle: Brourd's mod of Exclusion 4) | 0.141 µM | 0.0468 µM |  | 
GAAAACGAAGAGGAUAUUUGAUAUCAUAGCUUCAAAGAAGGCUUCACAUGAGGAUCACCCAUGUGAUCUUCAAA [jl-ex6-4.06 ViennaUCT mod] (Eterna round: R97, puzzle: Exclusion 6) | 0.0958 µM | 0.0227 µM |  | 
GAAAACGCAGAGGAUAUAUCAGAUCAAAGCUGCAUAGAAGGCUGCACAUGAGGAUCACCCAUGUGGUCUUCAAA [jl-ex6-4.01 ViennaUCT mod] (Eterna round: R97, puzzle: Exclusion 6) | 0.243 µM | 0.0209 µM |  | 
GAAAACGCAGAGGAUAUAUCAGAUCAAAGCUGCAUAGAAGGCUGCACAUGAGGAUCACCCAUGUGGUCUUUAAA [jl-ex6-4.00 ViennaUCT mod] (Eterna round: R97, puzzle: Exclusion 6) | 0.218 µM | 0.022 µM |  | 

From the supplement of paper PMC9170038
